{"source": "IntAct's records for PubMed 19141287", "parents": {"B1": {"name": "Mitotic checkpoint serine/threonine-protein kinase BUB1 (Homo sapiens), O43683 (parent)", "chain": "MDTPENVLQMLEAHMQSYKGNDPLGEWERYIQWVEENFPENKEYLITLLEHLMKEFLDKKKYHNDPRFISYCLKFAEYNSDLHQFFEFLYNHGIGTLSSPLYIAWAGHLEAQGELQHASAVLQRGIQNQAEPREFLQQQYRLFQTRLTETHLPAQARTSEPLHNVQVLNQMITSKSNPGNNMACISKNQGSELSGVISSACDKESNMERRVITISKSEYSVHSSLASKVDVEQVVMYCKEKLIRGESEFSFEELRAQKYNQRRKHEQWVNEDRHYMKRKEANAFEEQLLKQKMDELHKKLHQVVETSHEDLPASQERSEVNPARMGPSVGSQQELRAPCLPVTYQQTPVNMEKNPREAPPVVPPLANAISAALVSPATSQSIAPPVPLKAQTVTDSMFAVASKDAGCVNKSTHEFKPQSGAEIKEGCETHKVANTSSFHTTPNTSLGMVQATPSKVQPSPTVHTKEALGFIMNMFQAPTLPDISDDKDEWQSLDQNEDAFEAQFQKNVRSSGAWGVNKIISSLSSAFHVFEDGNKENYGLPQPKNKPTGARTFGERSVSRLPSKPKEEVPHAEEFLDDSTVWGIRCNKTLAPSPKSPGDFTSAAQLASTPFHKLPVESVHILEDKENVVAKQCTQATLDSCEENMVVPSRDGKFSPIQEKSPKQALSSHMYSASLLRLSQPAAGGVLTCEAELGVEACRLTDTDAAIAEDPPDAIAGLQAEWMQMSSLGTVDAPNFIVGNPWDDKLIFKLLSGLSKPVSSYPNTFEWQCKLPAIKPKTEFQLGSKLVYVHHLLGEGAFAQVYEATQGDLNDAKNKQKFVLKVQKPANPWEFYIGTQLMERLKPSMQHMFMKFYSAHLFQNGSVLVGELYSYGTLLNAINLYKNTPEKVMPQGLVISFAMRMLYMIEQVHDCEIIHGDIKPDNFILGNGFLEQDDEDDLSAGLALIDLGQSIDMKLFPKGTIFTAKCETSGFQCVEMLSNKPWNYQIDYFGVAATVYCMLFGTYMKVKNEGGECKPEGLFRRLPHLDMWNEFFHVMLNIPDCHHLPSLDLLRQKLKKVFQQHYTNKIRALRNRLIVLLLECKRSRK"}}, "data": [{"variants_of": "B1", "settings": "with KNL1, Q8NG31-2", "values": [{"variant": "G20S;N21Q;D22A", "effect of a mutation on the interaction": "disrupting interaction"}, {"variant": "L45G;L49G", "effect of a mutation on the interaction": "disrupting interaction"}, {"variant": "D65G", "effect of a mutation on the interaction": "disrupting interaction"}, {"variant": "G93A;G95A", "effect of a mutation on the interaction": "disrupting interaction"}, {"variant": "G93A;I94G;G95L", "effect of a mutation on the interaction": "disrupting interaction"}]}]}
